The results in this text go back to patent US20130129746A1 (GlaxoSmithKline, published 2013).

Holding throughout (assay): BIAcore SPR (Albumin KD column)
(In general: SPR reads the build-up and loss of mass on a sensor chip optically.)

Assay [1] addresses T1, DOM7h-14/Exendin-4 fusion DMS number 7138.
T1 construct: exendin-4, (G4S)3 linker, AlbudAb; also called DMS7138

The target in assay [2] is T2, DOM7h-14-10/Exendin-4 fusion DMS number 7139.
T2 construct: exendin-4, (G4S)3 linker, AlbudAb; also called DMS7139

Assay [3] addresses T3, DOM7h-14-18/Exendin-4 fusion DMS number 7140.
T3 construct: exendin-4, (G4S)3 linker, AlbudAb; also called DMS7140

Assay [4] concerns the target T4, DOM7h-11/Exendin-4 fusion DMS number 7142.
T4 construct: exendin-4, (G4S)3 linker, AlbudAb; also called DMS7142

Assay [5] concerns the target T5, DOM7h-11-12/Exendin-4 fusion DMS number 7147.
T5 construct: exendin-4, (G4S)3 linker, AlbudAb; also called DMS7147

In assay [6] the target is T6, DOM7h-11-15/Exendin-4 fusion DMS number 7143.
T6 construct: exendin-4, (G4S)3 linker, AlbudAb; also called DMS7143

In assay [7] the target is T7, DOM7h-14-19/Exendin-4 fusion DMS number 7141.
T7 construct: exendin-4, (G4S)3 linker, AlbudAb; also called DMS7141

B1: Rat Serum Albumin (other, UniProt P02770 25-608, looked up)
chain: EAHKSEIAHRFKDLGEQHFKGLVLIAFSQYLQKCPYEEHIKLVQEVTDFAKTCVADENAENCDKSIHTLFGDKLCAIPKLRDNYGELADCCAKQEPERNECFLQHKDDNPNLPPFQRPEAEAMCTSFQENPTSFLGHYLHEVARRHPYFYAPELLYYAEKYNEVLTQCCTESDKAACLTPKLDAVKEKALVAAVRQRMKCSSMQRFGERAFKAWAVARMSQRFPNAEFAEITKLATDVTKINKECCHGDLLECADDRAELAKYMCENQATISSKLQACCDKPVLQKSQCLAEIEHDNIPADLPSIAADFVEDKEVCKNYAEAKDVFLGTFLYEYSRRHPDYSVSLLLRLAKKYEATLEKCCAEGDPPACYGTVLAEFQPLVEEPKNLVKTNCELYEKLGEYGFQNAVLVRYTQKAPQVSTPTLVEAARNLGRVGTKCCTLPEAQRLPCVEDYLSAILNRLCVLHEKTPVSEKVTKCCSGSLVERRPCFSALTVDETYVPKEFKAETFTFHSDICTLPDKEKQIKKQTALAELVKHKPKATEDQLKTVMGDFAQFVDKCCKAADKDNCFATEGPNLVARSKEALA
notes: mature; purified protein on CM5 chips for BIAcore; also called RSA; rat SA
One may read the Kd as the free concentration of one partner at which half of the binding sites on the other are occupied at equilibrium, for simple one-to-one binding. Lower therefore signals a tighter complex. On to B1, for which the Kd in assay [1] amounted to 2400 nM; in assay [2] it was 19 nM; in assay [3] it was 16 µM; in assay [4], 24 µM; in assay [5] it was 1400 nM; in assay [6], 130 nM. Binding in assay [7] was characterised by a dissociation constant (Kd) of 17 µM.
